Measurements from the RNAGym collection of RNA variant scans (doi:10.7554/elife.80360).

B1: CPEB3 Ribozyme (parent)
chain: GGGGGCCACAGCAGAAGCGUUCACGUCGCGGCCCCUGUCAGAUUCUGGUGAAUCUGCGAAUUCUGCUGU

Variants of: B1
Assay: self-cleavage, relative activity (ratio to wild type); higher = more cleavage; co-transcriptional
For GGGGGCCACAGCAGAAGCGUUCACCUCACGGCCCCUGUCAGAUUCUGGUGAAUCUGCGAAUUCUGCUGU, the self-cleavage was 0.14. GGGGGCCACAGCAGAAGCGUUCACCUCUCGGCCCCUGUCAGAUUCUGGUGAAUCUGCGAAUUCUGCUGU showed a self-cleavage of 0.16. Work on GGGGGCCACAGCAGAAGCGUUCACCUCGCGGCCCCUGUCAGAUUCUCGUGAAUCUGCGAAUUCUGCUGU yielded a self-cleavage of 0.142. GGGGGCCACAGCAGAAGCGUUCACCUCGCGGCCCCUGUCAGAUUCUUGUGAAUCUGCGAAUUCUGCUGU gave a self-cleavage of 0.213. Work on GGGGGCCACAGCAGAAGCGUUCACCUCGCGGCCCCUGUCAGAUUCUAGUGAAUCUGCGAAUUCUGCUGU yielded a self-cleavage of 0.102. GGGGGCCACAGCAGAAGCGUUCACCUCGCGGCCCCUGUCAAAUUCUGGUGAAUCUGCGAAUUCUGCUGU gave a self-cleavage of 0.123. Variant GGGGGCCACAGCAGAAGCGUUCACCUCGCGGCCCCUGUCACAUUCUGGUGAAUCUGCGAAUUCUGCUGU has a self-cleavage of 0.0934. GGGGGCCACAGCAGAAGCGUUCACCUCGCGGCCCCUGCCAGAUUCUGGUGAAUCUGCGAAUUCUGCUGU gave a self-cleavage of 0.166. GGGGGCCACAGCAGAAGCGUUCACCUCGCGGCCCCUGGCAGAUUCUGGUGAAUCUGCGAAUUCUGCUGU showed a self-cleavage of 0.187. Work on GGGGGCCACAGCAGAAGCGUUCACCUCGCGGCCCCUGACAGAUUCUGGUGAAUCUGCGAAUUCUGCUGU yielded a self-cleavage of 0.176. Work on GGGGGCCACAGCAGAAGCGUUCACCUCGCGGCCCCUGUCAGAUUCGGGUGAAUCUGCGAAUUCUGCUGU yielded a self-cleavage of 0.192. Variant GGGGGCCACAGCAGAAGCGUUCACCUCGCGGCCCCUGUCAGAUUCAGGUGAAUCUGCGAAUUCUGCUGU has a self-cleavage of 0.18. For GGGGGCCACAGCAGAAGCGUUCACCUCGCGGCCCCGGUCAGAUUCUGGUGAAUCUGCGAAUUCUGCUGU, the self-cleavage was 0.217. Work on GGGGGCCACAGCAGAAGCGUUCACCUCGCGGCCCCUCUCAGAUUCUGGUGAAUCUGCGAAUUCUGCUGU yielded a self-cleavage of 0.156. For GGGGGCCACAGCAGAAGCGUUCACCUCGCGGCCCCUAUCAGAUUCUGGUGAAUCUGCGAAUUCUGCUGU, the self-cleavage was 0.171. GGGGGCCACAGCAGAAGCGUUCACCUCGCGGCCCCUGUCAGAUUCUGGUGAAUCUACGAAUUCUGCUGU showed a self-cleavage of 0.143. GGGGGCCACAGCAGAAGCGUUCACCUCGCGGCCCCUGUCAGAUUCUGGUGAAUCUGCCAAUUCUGCUGU showed a self-cleavage of 0.234. Work on GGGGGCCACAGCAGAAGCGUUCACCUCGCGUCCCCUGUCAGAUUCUGGUGAAUCUGCGAAUUCUGCUGU yielded a self-cleavage of 0.176. GGGGGCCACAGCAGAAGCGUUCACCUCGCGCCCCCUGUCAGAUUCUGGUGAAUCUGCGAAUUCUGCUGU showed a self-cleavage of 0.143. Variant GGGGGCCACAGCAGAAGCGUUCACCUCGCGGCCCCUGUCAGAUUCUGGUGAAUCUGCGAAUUCUGCUUU has a self-cleavage of 0.21. Work on GGGGGCCACAGCAGAAGCGUUCACCUCGCGGCCCCUGUCAGAUUCUGGUGAAUCUGCGAAUUCUGCUCU yielded a self-cleavage of 0.18. Work on GGGGGCCACAGCAGAAGCGUUCACCUCGCGGCCCCUGUCAGAUUCUGGUGAAUCUGCGAAUUCUGCUAU yielded a self-cleavage of 0.255. Work on GGGGGCCACAGCAGAAGCGUUCACCUCGCCGCCCCUGUCAGAUUCUGGUGAAUCUGCGAAUUCUGCUGU yielded a self-cleavage of 0.171. For GGGGGCCACAGCAGAAGCGUUCACCUCGCUGCCCCUGUCAGAUUCUGGUGAAUCUGCGAAUUCUGCUGU, the self-cleavage was 0.193. In the case of GGGGGCCACAGCAGAAGCGUUCACCUCGCAGCCCCUGUCAGAUUCUGGUGAAUCUGCGAAUUCUGCUGU, the self-cleavage is reported as 0.25. In the case of GGGGGCCACAGCAGAAGCGUUCACCUCGCGGCCCCUGUCAGAUUCUGGUGAAUCUGCGAAUUCUGAUGU, the self-cleavage is reported as 0.134. For GGGGGCCACAGCAGAAGCGUUCACCUCGCGGCCCCUGUCAGAUUCUGGUGAAUCUGCGAAUUCUGUUGU, the self-cleavage was 0.15. Work on GGGGGCCACAGCAGAAGCGUUCACCUCGCGGCCCCUGUCAGAUUCUGGUGAAUCUGCGAAUUCUGGUGU yielded a self-cleavage of 0.0932. Variant GGGGGCCACAGCAGAAGCGUUCACCUCGCGGCCCCUGUCAGAUUCUGGUGAAUCUGAGAAUUCUGCUGU has a self-cleavage of 0.14. Variant GGGGGCCACAGCAGAAGCGUUCACCUCGCGGCCCCUGUCAGAUUCUGGUUAAUCUGCGAAUUCUGCUGU has a self-cleavage of 0.216. In the case of GGGGGCCACAGCAGAAGCGUUCACCUCGCGGCCCCUGUCAGAUUCUGGUAAAUCUGCGAAUUCUGCUGU, the self-cleavage is reported as 0.186. For GGGGGCCACAGCAGAAGCGUUCACCUCGCGGCCCCUGUCAGACUCUGGUGAAUCUGCGAAUUCUGCUGU, the self-cleavage was 0.164. With GGGGGCCACAGCAGAAGCGUUCACCUCGCGGCCCCUGUCAGAGUCUGGUGAAUCUGCGAAUUCUGCUGU the self-cleavage was 0.188. Variant GGGGGCCACAGCAGAAGCGUUCACCUCGCGGCCCCUGUCAGAUACUGGUGAAUCUGCGAAUUCUGCUGU has a self-cleavage of 0.188. For GGGGGCCACAGCAGAAGCGUUCACCUCGCGGCCCCUGUCAGAUUCUGAUGAAUCUGCGAAUUCUGCUGU, the self-cleavage was 0.16. In the case of GGGGGCCACAGCAGAAGCGUUCACCUCGCGGCCCCUGUCAGAUUCUGUUGAAUCUGCGAAUUCUGCUGU, the self-cleavage is reported as 0.186. Work on GGGGGCCACAGCAGAAGCGUUCACCUCGCGGCCCCUGUCAGAUUCUGGUGAAUCUGCGAAUUUUGCUGU yielded a self-cleavage of 0.136. GGGGGCCACAGCAGAAGCGUUCACCUCGCGGCCCCUGUCAGAUUCUGGUGAAUCUGCGAAUUCUCCUGU showed a self-cleavage of 0.18. With GGGGGCCACAGCAGAAGCGUUCACCUCGCGGCCCCUGUCAGAUUCUGGUGAAUCUGCGAAUUCUUCUGU the self-cleavage was 0.151.
